T1: human ICOS on cells (human, UniProt Q9Y6W8 21-199)
T1 sequence (looked up): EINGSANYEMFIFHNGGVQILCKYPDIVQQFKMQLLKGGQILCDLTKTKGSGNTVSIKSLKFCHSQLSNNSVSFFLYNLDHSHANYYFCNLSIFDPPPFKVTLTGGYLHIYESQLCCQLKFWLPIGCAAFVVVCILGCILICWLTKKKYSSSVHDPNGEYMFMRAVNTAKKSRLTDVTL

T2: human ICOS ligand (B7-H2) (human, UniProt O75144 19-258, limits assumed)
T2 construct: also called native ICOS-L; CD275
T2 sequence (looked up): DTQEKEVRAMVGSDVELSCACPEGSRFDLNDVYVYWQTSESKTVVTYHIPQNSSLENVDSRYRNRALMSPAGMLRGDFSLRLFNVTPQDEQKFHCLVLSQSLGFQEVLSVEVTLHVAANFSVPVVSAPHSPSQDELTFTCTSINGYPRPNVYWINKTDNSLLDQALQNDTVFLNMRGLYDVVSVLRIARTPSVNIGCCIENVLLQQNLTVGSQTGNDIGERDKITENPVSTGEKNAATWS

B1: H2L5 IgG4PE (antibody, V domains shown)
VH: QVQLVQSGAEVKKPGSSVKVSCKASGYTFTDYAMHWVRQAPGQGLEWMGLISIYSDHTNYNQKFQGRVTITADKSTSTAYMELSSLRSEDTAVYYCGRNNYGNYGWYFDVWGQGTTVTVSS
VL: EIVLTQSPATLSLSPGERATLSCSASSSVSYMHWYQQKPGQAPRLLIYDTSKLASGIPARFSGSGSGTDYTLTISSLEPEDFAVYYCFQGSGYPYTFGQGTKLEIK
notes: Humanized variant of murine clone 422.2; human IgG4 with S228P and L235E (EU numbering), called IgG4PE; also called H2L5 hIgG4PE; ICOS IgG4PE
B2: recombinant ICOS protein (R&D Systems) (receptor, human, UniProt Q9Y6W8 21-141, looked up)
chain: EINGSANYEMFIFHNGGVQILCKYPDIVQQFKMQLLKGGQILCDLTKTKGSGNTVSIKSLKFCHSQLSNNSVSFFLYNLDHSHANYYFCNLSIFDPPPFKVTLTGGYLHIYESQLCCQLKF
notes: Bought; also called ICOS receptor
B3: rabbit Fc-tagged recombinant human ICOS (Fc fusion, UniProt Q9Y6W8 21-140, looked up, not shown: a dimerising Fc or GST)
chain: EINGSANYEMFIFHNGGVQILCKYPDIVQQFKMQLLKGGQILCDLTKTKGSGNTVSIKSLKFCHSQLSNNSVSFFLYNLDHSHANYYFCNLSIFDPPPFKVTLTGGYLHIYESQLCCQLK
notes: Generated in-house; also called dimeric human ICOS; Fc-fusion version of the recombinant ICOS protein

In one assay the target is T1, human ICOS on cells. As to the kind of experiment: cell-based or functional assay.
For assay [1], the target named is rabbit Fc-tagged recombinant Cynomolgus ICOS (cynomolgus macaque). In words: Biacore (SPR), column MONKEY kd (1/s). A general note: In SPR one partner is held on a chip, and binding of the other changes the refractive index at the surface.
Assay [2] has the same target. As to the kind of experiment: Biacore (SPR), column MONKEY ka (1/Ms).
The target in assay [3] is B3. As to the kind of experiment: Biacore (SPR), column HUMAN kd (1/s). An excerpt: (§1) The ICOS binding data was fitted to a 1:1 kinetics model using the T200 data analysis software.
In assay [4] the target is B3. As to the kind of experiment: Biacore (SPR), column HUMAN ka (1/Ms).
From the text: as §1

In assay [5] the target is rabbit Fc-tagged recombinant Cynomolgus ICOS (cynomolgus macaque). As to the kind of experiment: SPR, Biacore T200, Fc-tagged recombinant cynomolgus ICOS, 1:1 kinetics model.
The target of assay [6] is B3. In words: SPR, Biacore T200, Fc-tagged recombinant human ICOS, 1:1 kinetics model.
From the text: as §1

For assay [7], the target named is B3. As to the kind of experiment: SPR, Biacore; affinity of H2L5 for dimeric human ICOS against that of ICOS-L.
In assay [8] the target is B3. In words: BIAcore target capture, capture level hICOS 23.7 RU, Rmax 26.5 RU.
Assay [9] deals with B3. In words: BIAcore target capture, capture level hICOS 39.8 RU, Rmax 40.5 RU.
Another assay deals with human FcγR I (human) (UniProt P12314). As to the kind of experiment: SPR (ProteOn XPR36; table title says BIAcore), His-tagged FcγR captured, antibody as analyte, equilibrium model.
Sequence of human FcγR I (human) (P12314 16-288 limits assumed): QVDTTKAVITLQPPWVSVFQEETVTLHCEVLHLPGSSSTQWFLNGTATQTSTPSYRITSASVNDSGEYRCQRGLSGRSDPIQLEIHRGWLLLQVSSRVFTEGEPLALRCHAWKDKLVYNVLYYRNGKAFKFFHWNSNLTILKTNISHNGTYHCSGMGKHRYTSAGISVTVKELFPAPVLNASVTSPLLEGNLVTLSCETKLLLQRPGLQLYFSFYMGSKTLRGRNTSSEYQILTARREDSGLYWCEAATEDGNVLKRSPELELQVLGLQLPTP
In assay [10] the target is human FcγR IIa (R131) (human) (UniProt P12318). Described as above.
Sequence of human FcγR IIa (R131) (human) (P12318 36-218 H167R limits assumed): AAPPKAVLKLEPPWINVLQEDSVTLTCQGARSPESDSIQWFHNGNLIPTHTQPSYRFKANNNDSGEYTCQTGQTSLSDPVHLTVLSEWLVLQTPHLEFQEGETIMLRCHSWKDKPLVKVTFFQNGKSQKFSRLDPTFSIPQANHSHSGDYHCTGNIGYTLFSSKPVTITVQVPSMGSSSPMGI
In a further assay the target is human FcγR IIb (human) (UniProt P31994). Described as above.
Sequence of human FcγR IIb (human) (P31994 46-217 limits assumed): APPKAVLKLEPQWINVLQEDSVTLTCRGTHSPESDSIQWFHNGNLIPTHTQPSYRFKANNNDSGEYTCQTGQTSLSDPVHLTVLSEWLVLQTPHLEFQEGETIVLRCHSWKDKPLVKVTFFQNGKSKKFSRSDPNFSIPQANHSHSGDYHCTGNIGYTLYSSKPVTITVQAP
For assay [11], the target named is B2. As to the kind of experiment: MSD competition assay on plate-coated ICOS; blocked ligand: human ICOS ligand at 1 ug/mL. As to the method:
MSD plates were incubated overnight at 4° C. with 10 μg/mL recombinant ICOS protein (R&D Systems) diluted in PBS. […] Sulfo-tagged streptavidin at 10 μg/mL in Diluent 100 was used for detection of the biotinylated ligand. All incubations were at room temperature for one hour on a plate shaker unless otherwise noted. The plates were read immediately following MSD Read buffer addition on a MSD MESO Quick Plex SQ 120 and data analyzed on MSD workbench software (Meso-Scale, Rockville, Md.).

The target of assay [12] is B2. As to the kind of experiment: MSD competition assay: plate-coated recombinant ICOS, H2L5 IgG4PE titrated against 1 µg/mL human ICOS ligand (B7-H2); inhibition is partial. As to the method:
(§2) MSD plates were incubated overnight at 4° C. with 10 μg/mL recombinant ICOS protein (R&D Systems) diluted in PBS. […] Sulfo-tagged streptavidin at 10 μg/mL in Diluent 100 was used for detection of the biotinylated ligand. All incubations were at room temperature for one hour on a plate shaker unless otherwise noted. The plates were read immediately following MSD Readbuffer addition on a MSD MESO Quick Plex SQ 120 and data analyzed on MSD workbench software (Meso Scale Discovery).

Assay [13] addresses T2, human ICOS ligand (B7-H2). In words: MSD plate assay: 1 µg/mL human ICOS ligand (B7-H2) on plate-coated recombinant ICOS, detected with biotinylated anti-ICOS-L and sulfo-tag streptavidin. The procedure:
as §2

Assay [14] concerns the target T2, human ICOS ligand (B7-H2). In words: Biacore (SPR), human ICOS-L on dimeric human ICOS.
For assay [15], the target named is T2, human ICOS ligand (B7-H2). In words: Biacore sensorgrams with fitted curves, ICOS-L on dimeric human ICOS.

As a reminder, the koff is the first-order rate constant of dissociation. Broadly, the kon is a measure of how fast the partners come together. Usually Kd stands for the constant that tells how readily two partners part at equilibrium. With B1, the “EC50 of IFNγ induction, isolated human CD4+ T cells, immobilized format, first donor” value with human ICOS on cells was 3.8 µg/mL. Moreover, the “EC50 of IFNγ induction, isolated human CD4+ T cells, immobilized format, second donor” value with human ICOS on cells was found to be 4.5 µg/mL. Also, in the assay with human ICOS on cells, the “EC50 of IFNγ induction, isolated human CD4+ T cells, soluble format, first donor” value is 6 µg/mL. For the same molecule, the “EC50 of IFNγ induction, isolated human CD4+ T cells, soluble format, second donor” value with human ICOS on cells came out at 4.3 µg/mL. In addition, the koff was 0.000371 s⁻¹ in [1] and 0.000396 s⁻¹ in [3]. The kon was 391000 M⁻¹ s⁻¹ in [2] and 297000 M⁻¹ s⁻¹ in assay [4]. For the same molecule, the Kd is 0.95 nM in assay [5]; 1.34 nM in assay [6]; 645 nM with human FcγR I (human); 2500 nM in assay [10]; 1470 nM with human FcγR IIb (human). Moreover, in [7], the “fold higher affinity than native ICOS-L/CD275” value is about 17 fold. Further, the figures for the stoichiometry in assay [8] and in assay [9] were 0.6 and 0.5, respectively. For the same molecule, the “IC50 (read off the curve)” value in [11] and in assay [12] was about 2 µg/mL throughout.

Regarding B2, the binding result in assay [13] is recorded as “binds”.

In the case of B3, the Kd in assay [14] and in assay [15] was 22.6 nM each time.

Source of the values: patent US20190256599A1 (GlaxoSmithKline, published 2019).
